According to PMC7406630, “A new ^68Ga-labeled somatostatin analog containing two iodo-amino acids for dual somatostatin receptor subtype 2 and 5 targeting” (EJNMMI Research, 2020):

Experiments:
[1] = format: physicochemical; details: pH 7.4
Experimental: To a pre-saturated mixture of 500 μL n-octanol and 500 μL of phosphate-buffered saline (PBS) at pH 7.4, 10 μL of 1 μM of ^67Ga-labeled conjugates was added. The solutions were vortexed for 1 h to reach equilibrium and then centrifuged (3000 rpm) for 10 min. From each phase, 100 μL was removed and measured in a γ-counter. The partition coefficient was calculated as the average of the logarithmic values (n = 3) of the ratio between the radioactivity in the organic and the PBS phase.

in vivo [2] = details: female, mouse, 100 pmol, total radioactivity
in vivo [3] = details: female, mouse, 100 pmol, total radioactivity; remark: listed apart in the source
human SST2 [4] = biological target: T1, human SST2 (Homo sapiens, UniProt P30874); test: Competition binding assay on HEK-SST2 cells with ^125I-labeled SS-14; details: read-out: SST2 IC50, nM (95% CI), ^125I-SS-14 radioligand, 3 to 5 sessions in duplicate
T1 construct: expressed in transfected cells; host or cells: HEK293 (HEK-SST2)
Experimental: (§1) Human Embryonic Kidney (HEK293) cells (a kind gift from Dr. A. Mühlethaler-Mottet, Pediatric Hematology-Oncology Unit, Lausanne University Hospital, Switzerland) were stably transfected with plasmids encoding the human SST2 and SST5 (HEK-SST2 and HEK-SST5) and cultivated as previously described. Non-transfected HEK cells were used as a negative control.
(§2) Binding assays were performed as described previously.

human SST5 [5] = biological target: T2, human SST5 (Homo sapiens, UniProt P35346); test: Competition binding assay on HEK-SST5 cells with ^125I-labeled SS-14; details: read-out: SST5 IC50, nM (95% CI), ^125I-SS-14 radioligand, 3 to 5 sessions in duplicate
T2 construct: expressed in transfected cells; host or cells: HEK293 (HEK-SST5)
Experimental: as §1, §2

human SST2 [6] = biological target: T1, human SST2; test: cAMP accumulation experiments on HEK-SST2 cells (agonistic potency); format: cell-based; details: read-out: SST2 EC50, nM (95% CI); cAMP, HEK-SST2 cells; 3 to 4 sessions in duplicate
Experimental: (§3) Human Embryonic Kidney (HEK293) cells (a kind gift from Dr. A. Mühlethaler-Mottet, Pediatric Hematology-Oncology Unit, Lausanne University Hospital, Switzerland) were stably transfected with plasmids encoding the human SST2 and SST5 (HEK-SST2 and HEK-SST5) and cultivated as previously described [25]. Non-transfected HEK cells were used as a negative control.
(§4) cAMP accumulation experiments on HEK-SST2 and HEK-SST5 cells were performed with cAMP direct immunoassay kit (colorimetric, K371, BioVision) as described previously [25].

human SST5 [7] = biological target: T2, human SST5; test: cAMP accumulation experiments on HEK-SST5 cells (agonistic potency); format: cell-based; details: read-out: SST5 EC50, nM (95% CI), 3 to 4 sessions in duplicate
Experimental: as §3, §4

[8] = athymic Nude-Foxn1^nu/Foxn1^+, Adrenal uptake
[9] = athymic Nude-Foxn1^nu/Foxn1^+, Blood uptake
[10] = athymic Nude-Foxn1^nu/Foxn1^+, Femur uptake
[11] = athymic Nude-Foxn1^nu/Foxn1^+, Heart uptake
[12] = athymic Nude-Foxn1^nu/Foxn1^+, Intestine uptake
[13] = athymic Nude-Foxn1^nu/Foxn1^+, Kidney uptake
[14] = athymic Nude-Foxn1^nu/Foxn1^+, Lung uptake
[15] = athymic Nude-Foxn1^nu/Foxn1^+, Muscle uptake
[16] = athymic Nude-Foxn1^nu/Foxn1^+, Pancreas uptake
[17] = athymic Nude-Foxn1^nu/Foxn1^+, Pituitary uptake
[18] = athymic Nude-Foxn1^nu/Foxn1^+, SST2 tumor uptake
[19] = athymic Nude-Foxn1^nu/Foxn1^+, SST5 tumor uptake
[20] = athymic Nude-Foxn1^nu/Foxn1^+, Stomach uptake
[21] = athymic Nude-Foxn1nu/Foxn1+, Spleen uptake
[22] = athymic Nude-Foxn1^nu/Foxn1^+, Liver uptake
[23] = athymic Nude-Foxn1nu/Foxn1+, Pancreas uptake

T1 sequence (P30874 whole entry): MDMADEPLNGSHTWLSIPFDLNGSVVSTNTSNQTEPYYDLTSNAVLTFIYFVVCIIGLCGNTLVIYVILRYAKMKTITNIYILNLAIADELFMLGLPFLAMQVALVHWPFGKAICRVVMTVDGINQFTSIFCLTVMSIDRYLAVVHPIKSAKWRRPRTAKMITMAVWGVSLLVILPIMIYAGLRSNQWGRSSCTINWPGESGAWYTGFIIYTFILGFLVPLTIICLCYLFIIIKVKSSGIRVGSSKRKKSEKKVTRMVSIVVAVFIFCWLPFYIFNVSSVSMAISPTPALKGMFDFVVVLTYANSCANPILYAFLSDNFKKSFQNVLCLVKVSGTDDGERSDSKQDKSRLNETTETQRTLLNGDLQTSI
T2 sequence (P35346 whole entry): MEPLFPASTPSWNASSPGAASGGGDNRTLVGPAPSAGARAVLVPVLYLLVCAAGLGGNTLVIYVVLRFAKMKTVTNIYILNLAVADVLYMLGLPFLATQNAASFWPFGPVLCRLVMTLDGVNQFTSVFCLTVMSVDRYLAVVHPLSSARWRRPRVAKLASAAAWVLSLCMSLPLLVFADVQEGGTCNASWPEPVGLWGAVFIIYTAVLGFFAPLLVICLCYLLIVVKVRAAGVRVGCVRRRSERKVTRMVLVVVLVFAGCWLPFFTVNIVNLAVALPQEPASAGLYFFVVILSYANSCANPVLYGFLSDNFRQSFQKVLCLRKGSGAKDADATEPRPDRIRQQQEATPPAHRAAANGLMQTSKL

C[C@@H](O)[C@@H]1NC(=O)[C@H](CCCCN)NC(=O)[C@@H](Cc2c[nH]c3ccccc23)NC(=O)[C@H](Cc2cccc3ccccc23)NC(=O)[C@@H](NC(=O)[C@@H](Cc2ccccc2)NC(=O)CN2CCN(CC(=O)O)CCN(CC(=O)O)CCN(CC(=O)O)CC2)CSSC[C@@H](C(=O)N[C@H](CO)[C@@H](C)O)NC1=O [[^67Ga]Ga-DOTA-NOC, metal not drawn]
log D [1]: − 1.6 ± 0.1

CC(C)[C@@H]1NC(=O)[C@H](CCCCN)NC(=O)[C@@H](Cc2c[nH]c3ccccc23)NC(=O)[C@H](Cc2ccc(O)c(I)c2)NC(=O)[C@@H](NC(=O)[C@@H](Cc2ccc(N)c(I)c2)NC(=O)CN2CCN(CC(=O)O)CCN(CC(=O)O)CCN(CC(=O)O)CC2)CSSC[C@@H](C(=O)N[C@H](C(N)=O)[C@@H](C)O)NC1=O [[^67Ga]Ga-DOTA-ST8950, metal not drawn]
log D [1]: − 1.0 ± 0.1

C[C@@H](O)[C@H](NC(=O)[C@@H]1CSSC[C@H](NC(=O)[C@@H](Cc2ccccc2)NC(=O)CN2CCN(CC(=O)O)CCN(CC(=O)O)CCN(CC(=O)O)CC2)C(=O)N[C@@H](Cc2ccc(O)cc2)C(=O)N[C@H](Cc2c[nH]c3ccccc23)C(=O)N[C@@H](CCCCN)C(=O)N[C@@H]([C@@H](C)O)C(=O)N1)C(=O)O [[^67Ga]Ga-DOTA-TATE, metal not drawn]
log D [1]: − 3.0 ± 0.1

C[C@@H](O)[C@@H]1NC(=O)[C@H](CCCCN)NC(=O)[C@@H](Cc2c[nH]c3ccccc23)NC(=O)[C@H](Cc2cccc3ccccc23)NC(=O)[C@@H](NC(=O)[C@@H](Cc2ccccc2)NC(=O)CN2CCN(CC(=O)O)CCN(CC(=O)O)CCN(CC(=O)O)CC2)CSSC[C@@H](C(=O)N[C@H](CO)[C@@H](C)O)NC1=O [[^68Ga]Ga-DOTA-NOC, [^68Ga][Ga-DOTA^0,1-Nal^3]-octreotide, metal not drawn, reference compound]
tissue uptake at 1 h (in vivo [2]; [8]): 4.6 ± 1 %ID/g
tissue uptake at 1 h (in vivo [2]; [9]): 1.1 ± 0.4 %ID/g
tissue uptake at 1 h (in vivo [2]; [10]): 1.7 ± 0.8 %ID/g
tissue uptake at 1 h (in vivo [2]; [11]): 0.7 ± 0.2 %ID/g
tissue uptake at 1 h (in vivo [2]; [12]): 3.3 ± 0.7 %ID/g
tissue uptake at 1 h (in vivo [2]; [13]): 9.8 ± 3.2 %ID/g
tissue uptake at 1 h (in vivo [2]; [14]): 3.3 ± 1.4 %ID/g
tissue uptake at 1 h (in vivo [2]; [15]): 0.5 ± 0.2 %ID/g
tissue uptake at 1 h (in vivo [2]; [16]): 16 ± 3 %ID/g
tissue uptake at 1 h (in vivo [2]; [17]): 8.2 ± 2.8 %ID/g
tissue uptake at 1 h (in vivo [2]; [18]): 30 ± 8 %ID/g
tissue uptake at 1 h (in vivo [2]; [19]): 12 ± 5 %ID/g
tissue uptake at 1 h (in vivo [2]; [20]): 12 ± 2 %ID/g
tissue uptake at 1 h (in vivo [2]; [21]): 0.8 ± 0.2 %ID/g

CC(C)[C@@H]1NC(=O)[C@H](CCCCN)NC(=O)[C@@H](Cc2c[nH]c3ccccc23)NC(=O)[C@H](Cc2ccc(O)c(I)c2)NC(=O)[C@@H](NC(=O)[C@@H](Cc2ccc(N)c(I)c2)NC(=O)CN2CCN(CC(=O)O)CCN(CC(=O)O)CCN(CC(=O)O)CC2)CSSC[C@@H](C(=O)N[C@H](C(N)=O)[C@@H](C)O)NC1=O [[^68Ga]Ga-DOTA-ST8950, metal not drawn]
tissue uptake at 2 h (in vivo [2]; [8]): 4.3 ± 1 %ID/g
tissue uptake at 2 h (in vivo [2]; [9]): 0.8 ± 0.2 %ID/g
tissue uptake at 2 h (in vivo [2]; [10]): 2.4 ± 0.8 %ID/g
tissue uptake at 2 h (in vivo [2]; [11]): 0.8 ± 0.2 %ID/g
tissue uptake at 1 h (in vivo [2]; [12]): 2.4 ± 1.3 %ID/g
tissue uptake at 2 h (in vivo [2]; [12]): 2.7 ± 0.3 %ID/g
tissue uptake at 2 h (in vivo [2]; [13]): 14 ± 2 %ID/g
tissue uptake at 1 h (in vivo [2]; [22]): 6.4 ± 1.9 %ID/g
tissue uptake at 2 h (in vivo [2]; [22]): 7.3 ± 1.5 %ID/g
tissue uptake at 2 h (in vivo [2]; [14]): 3.5 ± 0.7 %ID/g
tissue uptake at 2 h (in vivo [2]; [15]): 0.6 ± 0.1 %ID/g
tissue uptake at 1 h (in vivo [2]; [16]): 8.5 ± 4.5 %ID/g
tissue uptake at 1 h (in vivo [2]; [17]): 8.5 ± 1.9 %ID/g
tissue uptake at 2 h (in vivo [2]; [17]): 7.8 ± 1.2 %ID/g
tissue uptake at 1 h (in vivo [2]; [18]): 26 ± 8 %ID/g
tissue uptake at 2 h (in vivo [2]; [18]): 32 ± 7 %ID/g
tissue uptake at 1 h (in vivo [2]; [19]): 15 ± 6 %ID/g
tissue uptake at 2 h (in vivo [2]; [19]): 14 ± 3 %ID/g
tissue uptake at 2 h (in vivo [2]; [20]): 8.4 ± 1.2 %ID/g
tissue uptake at 2 h (in vivo [2]; [23]): 8.6 ± 2.1 %ID/g
tissue uptake at 2 h (in vivo [2]; [21]): 1.5 ± 0.3 %ID/g
tissue uptake at 1 h (in vivo [3]; [12]): 2.5 ± 0.2 %ID/g
tissue uptake at 1 h (in vivo [3]; [22]): 6.2 ± 0.6 %ID/g
tissue uptake at 1 h (in vivo [3]; athymic Nude-Foxn1^nu/Foxn1^+, SST(-) tumor uptake): 1.4 ± 0.5 %ID/g
tissue uptake at 1 h (in vivo [3]; [23]): 7.4 ± 1.9 %ID/g

C[C@@H](O)[C@@H]1NC(=O)[C@H](CCCCN)NC(=O)[C@@H](Cc2c[nH]c3ccccc23)NC(=O)[C@H](Cc2cccc3ccccc23)NC(=O)[C@@H](NC(=O)[C@@H](Cc2ccccc2)NC(=O)CN2CCN(CC(=O)O)CCN(CC(=O)O)CCN(CC(=O)O)CC2)CSSC[C@@H](C(=O)N[C@H](CO)[C@@H](C)O)NC1=O [^natGa-DOTA-NOC, metal not drawn, reference compound]
IC50 (human SST2 [4]): 0.7 nM
IC50 (human SST5 [5]): 3.4 nM
EC50 (human SST2 [6]): 0.59 nM
EC50 (human SST5 [7]): 3.3 nM
